These are literature values, as cited in PMC3018525.

Like-named read-outs stand apart in the source and are kept apart here.

Data set [1] addresses EGF (Homo sapiens) (UniProt P01133).
For data set [2] the target is unchanged. The source holds these as a separate data set.

Chain of UniProt P01133 (P01133 971-1023): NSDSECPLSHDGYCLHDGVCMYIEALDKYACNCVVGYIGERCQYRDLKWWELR

Usually Kd stands for the equilibrium constant for the complex coming apart. On to “EGFR (high-affinity) (from UniProt P00533)”, for which the dissociation constant (Kd) with EGF (Homo sapiens) [1] is 0.3 nM. Turning to “EGFR (low-affinity) (from UniProt P00533)”, the Kd with EGF (Homo sapiens) [2] is 2 nM.
